We go through three molecules from article PMC10128974, “Sulfonylpiperazine compounds prevent Plasmodium falciparum invasion of red blood cells through interference with actin-1/profilin dynamics” (PLOS Biology, 2023).

Assay [1] addresses T1, PfACT1 with PfPFN (P. falciparum actin-1/profilin) (Plasmodium falciparum, UniProt Q8I2J4+Q8I4X0).
T1 construct: gene ACT1; PfACT1 from S. frugiperda Sf21 cells (baculovirus)
As to the kind of experiment: actin cosedimentation by ultracentrifugation, SDS-PAGE densitometry. Format: biochemical. The note with it: 4 uM PfACT1, 16 uM PfPFN, 25 uM compound, 50 mM KCl, 4 mM MgCl2, 1 mM EGTA, 0.5 mM ATP, 2.5% DMSO, pH 7.5, about 22 C, 16 h, binding site not located. An excerpt:
actin cosedimentation by ultracentrifugation, SDS-PAGE densitometry on PfACT1 with PfPFN (P. falciparum actin-1/profilin) | S-W827, decreased the amount of actin in the pellet further to | All MMV291 analogues, S-MMV291, R-MMV291, S-W936, R-W936, S-W414, and S-W827, decreased the amount of actin

Assay [2] addresses Plasmodium falciparum actin-1 (P. falciparum) (UniProt Q8I4X0).

Sequence of Plasmodium falciparum actin-1 (P. falciparum) (Q8I4X0 whole entry): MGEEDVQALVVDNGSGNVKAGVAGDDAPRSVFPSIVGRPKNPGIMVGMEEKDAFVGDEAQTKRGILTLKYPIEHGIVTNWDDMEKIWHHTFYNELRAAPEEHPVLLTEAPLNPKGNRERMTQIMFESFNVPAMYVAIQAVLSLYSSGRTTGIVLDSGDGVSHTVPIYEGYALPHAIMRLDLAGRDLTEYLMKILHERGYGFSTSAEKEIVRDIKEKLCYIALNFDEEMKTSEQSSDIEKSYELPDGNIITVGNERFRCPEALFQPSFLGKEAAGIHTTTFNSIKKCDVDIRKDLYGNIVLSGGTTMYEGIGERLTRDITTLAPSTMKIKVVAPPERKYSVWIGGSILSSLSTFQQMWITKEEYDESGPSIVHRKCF
T1 sequence (Q8I4X0 whole entry, one chain of several): as the sequence (Q8I4X0 whole entry) above

As for `CC(C(=O)N1CCCC1)N1CCN(S(=O)(=O)c2ccc(C(C)(C)C)cc2)CC1` (racemic) [R-MMV291], in assay [1], the “% PfACT1 in pellet at 25 uM” value is listed as 15 ± 2%.
Still for that read-out and setting: the result for `CC(C(=O)N1CCCC1)N1CCN(S(=O)(=O)c2ccc(C(C)(C)C)cc2)CC1` (racemic) [S-MMV291] reads 11 ± 1%.

B1: Plasmodium falciparum profilin (natural protein)
chain: MAEEYSWDSYLNDRLLATNQVSGAGLASEEDGVVYACVAQGEESDPNFDKWSLFYKEDYDIEVEDENGTKTTKTINEGQTILVVFNEGYAPDGVWLGGTKYQFINIERDLEFEGYNFDVATCAKLKGGLHLVKVPGGNILVVLYDEEKEQDRGNSKIAALTFAKELAESSQ
Take B1: in assay [2], the relative amount of PfACT1 (4 uM) in the pellet fraction of the sedimentation assay under polymerizing conditions with PfPFN (16 uM), DMSO is 21%; the relative amount of PfACT1 (4 uM) in the pellet fraction of the sedimentation assay with PfPFN (16 uM) and R-MMV291 (25 uM) amounted to 15%; the relative amount of PfACT1 (4 uM) in the pellet fraction of the sedimentation assay with PfPFN (16 uM) and R-W936 (25 uM) was 10%; the relative amount of PfACT1 (4 uM) in the pellet fraction of the sedimentation assay with PfPFN (16 uM) and S-MMV291 (25 uM) stood at 11%. Moreover, in assay [2], the relative amount of PfACT1 (4 uM) in the pellet fraction of the sedimentation assay with PfPFN (16 uM) and S-W414 (25 uM) is 9%; the relative amount of PfACT1 (4 uM) in the pellet fraction of the sedimentation assay with PfPFN (16 uM) and S-W827 (25 uM) was found to be 5%; the relative amount of PfACT1 (4 uM) in the pellet fraction of the sedimentation assay with PfPFN (16 uM) and S-W936 (25 uM) came to 8%.
